The source of these data is article PMC8850199, “Structure, mechanism and lipid-mediated remodeling of the mammalian Na^+/H^+ exchanger NHA2” (Nature Structural & Molecular Biology, 2022).

The stoichiometry N is a count of units in the complex or per binding partner.

The data set concerns the molecule itself. Nature of the data set: native MS; detergent-purified NHA2ΔN exchanged into C12E9, ~20 μM, Q-Exactive Orbitrap modified for high m/z.

B1: bison NHA2ΔN (SLC9B2 without the first 69 residues), GFP-TwinStrep-His8 tag removed with TEV protease (domain or fragment, Bison bison)
chain: RRRQIHACPPRGLLARVITNVTMVILLWAVVWSVTGSECLPGGNLFGIIMLFYCAIIGGKLFGLIKLPTLPPLPPLLGMLLAGFLIRNVPVISDNIQIKHKWSSALRSIALSVILVRAGLGLDSNALKKLKGVCVRLSLGPCLIEACTSAVLAYFLMGLPWQWGFMLGFVLGAVSPAVVVPSMLLLQEGGYGVEKGIPTLLMAAGSFDDILAITGFNTCLGMAFSTGSTVFNVLKGVLEVIIGVVTGLVLGFFIQYFPSSDQDNLVWKRAFLVLGLSVLAVFSSTYFGFPGSGGLCTLVTAFLAGRGWASTKTDVEKVIAVAWDIFQPLLFGLIGAEVLITALRPETIGLCVATLGIAVLIRILVTYLMVCFAGFNIKEKIFISFAWLPKATVQAAIGSVALDTARSHGEKQLEGYGMDVLTVAFLSIIITAPVGSLLIGLLGPRLLQKAEQNKDEEDQGETSIQV
notes: Na+/H+ exchanger NHA2 (SLC9B2), Bison bison, without the first 69 residues of the N-terminal tail; numbers count on: the full-length bison NHA2 as printed; residues of it stay on the C-terminus after digestion; also called biNHA2ΔN; source: S. cerevisiae FGY217, purified (DDM/CHS, Ni-NTA, TEV digestion, SEC); for nanodiscs reconstituted as GFP fusion with MSP1E2 and yeast PI, then TEV digestion …
Take B1: the “stoichiometry N” value was 2.
